Data from PMC5567573, “Identification, heterologous expression and characterization of a dye-decolorizing peroxidase of Pleurotus sapidus” (AMB Express, 2017).

Key:
Test in all cases: purified protein
[1] = substrate: CCn1c(=NN=c2sc3cc(S(=O)(=O)O)ccc3n2CC)sc2cc(S(=O)(=O)O)ccc21; format: biochemical, Pleurotus sapidus; conditions: H2O2 125 µM, pH 3.8, 100 mM sodium acetate, 30 °C, 0.27 nM enzyme
[2] = substrate: COc1cccc(OC)c1O; format: biochemical, Pleurotus sapidus; conditions: H2O2 62.5 µM, pH 4.5, 50 mM sodium acetate, 30 °C, 1.8 nM enzyme
[3] = substrate: COc1ccccc1O; conditions: H2O2 62.5 µM, pH 4.5, 50 mM sodium acetate, 30 °C, 4.5 nM enzyme

B1: rPsaDyP (recombinant DyP-type peroxidase of Pleurotus sapidus) (Pleurotus sapidus) (protein)
chain: ATNGTFLPLEEIQGDIMIGMRKPKEIFFFYSLQNPRKFKSVLAKLIYPHITTTAQMVCTTCAQPSAMLNVAWTSQGLRKLGVLDNLGDPYFAMGQLSDAAALGDTDPSTTWAPGLYANKTDGAFLIAAKDWEPIDTLLNQMKAWLGDAIVETHSNRGAVRPGDAAGKEHFGWLDGFIQPAVAGFATSTYPGQQLLLPGTLLTKEIGDPRRAARPAWTKWGSFMAYRQLQELVPEFDDYLMQEAALIQDSSRSVRERADLLGARMFGRWKSGTPLDLAPEKDDPSIGPNLMLNNNFDFNHPAPFNINTNQSYCPFSAHIRKIRPRADQGNQNLKNQMIRASIPYGEELSDDEINNKKTGTERGVAFVTYQSDLGSGFHFQQAEWANNVNIPTGKSDPTPGFDPIVGQNSGKPLVVSGIDYTDLNHDLTFMSFVVSKGGDYFFSPSMSAILHKIAA
Q: How did the Km [1] turn out when B1 was run?
A: 99 µM

Q: And the Vmax [1]?
A: 6 µM/min

Q: And the kcat [1]?
A: 375 s⁻¹

Q: And the kcat/Km [1]?
A: 3.8e+06 M⁻¹ s⁻¹

Q: And the Km [2]?
A: 1227 µM

Q: What about the Vmax [2] of the same protein?
A: 6.6 µM/min

Q: And the kcat [2]?
A: 60 s⁻¹

Q: And the kcat/Km [2]?
A: 49000 M⁻¹ s⁻¹

Q: What about the Km [3] of the same protein?
A: 713 µM

Q: And the Vmax [3]?
A: 21 µM/min

Q: And the kcat [3]?
A: 74 s⁻¹

Q: What about the kcat/Km [3] of the same protein?
A: 100000 M⁻¹ s⁻¹
